These results are taken from the supplement of paper PMC9112550, “Optimization of the antimicrobial peptide Bac7 by deep mutational scanning” (BMC Biology, 2022).

The series concerns Escherichia coli TOP10. Kind of series: shrunken log2 fold change of peptide-encoding DNA abundance (4.5 h post-induction vs induction); higher = less antimicrobial activity (less host growth inhibition). As to conditions: time post-induction: 4.5 h; library: site-saturation at positions 5, 18, 19, 20.
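Also: peptides expressed intracellularly from a pBAD plasmid library in pooled LB shake-flask culture, induced with 0.3% L-arabinose, DNA abundance read by NGS, three biological replicates, DESeq2 with apeglm shrinkage.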

Regarding RRIRGRPPRLPRPRPRPEKIPRP, the “shrunken log2 fold change” value is 0.672. Turning to RRIRNRPPRLPRPRPRPSQKPRP, the “shrunken log2 fold change” value is -0.0723. In the case of RRIRKRPPRLPRPRPRPCIRPRP it was -0.049. On to RRIRERPPRLPRPRPRPIHMPRP, for which the “shrunken log2 fold change” value was -0.0835. For the sequence RRIRYRPPRLPRPRPRPLTYPRP, the “shrunken log2 fold change” value is -0.144. Turning to RRIRVRPPRLPRPRPRPYEQPRP, the “shrunken log2 fold change” value was -0.285. RRIRKRPPRLPRPRPRPVHQPRP: the “shrunken log2 fold change” value was 0.305.

For RRIRFRPPRLPRPRPRPMRFPRP, the “shrunken log2 fold change” value was -0.0257. As to RRIRFRPPRLPRPRPRPFEDPRP, the “shrunken log2 fold change” value is -0.0916.

In the case of RRIRWRPPRLPRPRPRPDGQPRP, the “shrunken log2 fold change” value is -0.000921.

In the case of RRIRWRPPRLPRPRPRPMDWPRP, the “shrunken log2 fold change” value was 0.482. In the case of RRIRQRPPRLPRPRPRPICIPRP it was -0.0334. Under RRIRFRPPRLPRPRPRPGSCPRP stands -0.0149; under RRIRGRPPRLPRPRPRPYVRPRP, -0.51; under RRIRSRPPRLPRPRPRPWDLPRP, 0.056. As for RRIRTRPPRLPRPRPRPTNKPRP, the “shrunken log2 fold change” value was -0.444.

For the sequence RRIRDRPPRLPRPRPRPEMFPRP, the “shrunken log2 fold change” value was -0.0156. As to RRIRDRPPRLPRPRPRPRRMPRP, the “shrunken log2 fold change” value was -0.152. In the case of RRIRSRPPRLPRPRPRPHFGPRP it was -0.195; in that of RRIRWRPPRLPRPRPRPHSHPRP, -3.83e-05.

Regarding RRIRARPPRLPRPRPRPIVAPRP, the “shrunken log2 fold change” value worked out at 0.371. As to RRIRARPPRLPRPRPRPSCTPRP, the “shrunken log2 fold change” value was found to be 0.44. As for RRIRGRPPRLPRPRPRPPSWPRP, the “shrunken log2 fold change” value came to 1.24.

Turning to RRIRTRPPRLPRPRPRPAGRPRP, the “shrunken log2 fold change” value worked out at 0.352. In the case of RRIRLRPPRLPRPRPRPPLVPRP, the “shrunken log2 fold change” value was 0.402. On to RRIRQRPPRLPRPRPRPRPFPRP, for which the “shrunken log2 fold change” value turned out to be 0.149.

With RRIRLRPPRLPRPRPRPREIPRP, the “shrunken log2 fold change” value is 0.0725. Under RRIRCRPPRLPRPRPRPCEKPRP stands 0.0534; under RRIRDRPPRLPRPRPRPDWGPRP, 0.161. RRIRCRPPRLPRPRPRPPLCPRP: the “shrunken log2 fold change” value is 0.674. In the case of RRIRGRPPRLPRPRPRPTWGPRP, the “shrunken log2 fold change” value is 0.469. Take RRIRCRPPRLPRPRPRPKPEPRP: the “shrunken log2 fold change” value is 0.377. In the case of RRIRHRPPRLPRPRPRPDNNPRP it was -0.453. On to RRIRRRPPRLPRPRPRPVCHPRP, for which the “shrunken log2 fold change” value is -0.0349.

For RRIRYRPPRLPRPRPRPTEMPRP, the “shrunken log2 fold change” value is -0.306. Take RRIRERPPRLPRPRPRPYQEPRP: the “shrunken log2 fold change” value was -0.255. As for RRIRMRPPRLPRPRPRPRSAPRP, the “shrunken log2 fold change” value amounted to 1.36.

With RRIRTRPPRLPRPRPRPLFLPRP, the “shrunken log2 fold change” value was -0.184. Consider RRIRDRPPRLPRPRPRPSYEPRP, for which the “shrunken log2 fold change” value was found to be 0.175. For RRIRKRPPRLPRPRPRPYLQPRP, the “shrunken log2 fold change” value was -0.599.

As to RRIRNRPPRLPRPRPRPCCWPRP, the “shrunken log2 fold change” value was -0.0688. As for RRIRNRPPRLPRPRPRPGVCPRP, the “shrunken log2 fold change” value came out at 0.241. Turning to RRIRHRPPRLPRPRPRPNYIPRP, the “shrunken log2 fold change” value is -1.35. As to RRIRYRPPRLPRPRPRPSNMPRP, the “shrunken log2 fold change” value was -1.1. Consider RRIRHRPPRLPRPRPRPSWPPRP, for which the “shrunken log2 fold change” value is -0.00928. As for RRIRNRPPRLPRPRPRPFMAPRP, the “shrunken log2 fold change” value is -0.513. In the case of RRIRVRPPRLPRPRPRPGCIPRP it was -0.0275. Turning to RRIRMRPPRLPRPRPRPGLIPRP, the “shrunken log2 fold change” value was found to be 0.133. Under RRIRCRPPRLPRPRPRPLHKPRP stands -0.0345; under RRIRDRPPRLPRPRPRPGAWPRP, 4.01.
